Data taken from paper PMC6699858, “Ternary structure of the outer membrane transporter FoxA with resolved signalling domain provides insights into TonB-mediated siderophore uptake” (eLife, 2019).

Columns and labels:
FoxA = biological target: T1, FoxA (Pseudomonas aeruginosa, UniProt Q9I116); assay: tryptophan fluorescence quenching (Kd […]); also ITC in nanodiscs (Kd […]) and co-crystal structures without and with TonBCt; format: binding
T1 construct: Full-length FoxA, purified in nonyl glucopyranoside

[1] = biological target: T2, FoxA from Pseudomonas aeruginosa strain PAO1, full-length (Pseudomonas aeruginosa strain PAO1, UniProt Q9I116 1-820, Signal peptide taken as removed in the outer membrane; text gives the mature start as 44 or 45, and 45 is used. His6 tag removed by TEV, residual TEV-site residues at the C-terminus omitted. Ferrioxam); assay: ITC; 150 μM TonBCt in the syringe, 15 μM apo FoxA in MSP1D1/POPC nanodiscs in the cell; 20 mM HEPES, 150 mM NaCl, pH 7.5; 26 °C; single-site model; triplicates, SD; details: both partners purified
[2] = biological target: T2, FoxA from Pseudomonas aeruginosa strain …; assay: ITC; 150 μM TonBCt in the syringe, 15 μM ferrioxamine B-bound FoxA in MSP1D1/POPC nanodiscs in the cell (dialysed against 1 mM FoaB); 20 mM HEPES, 150 mM NaCl, pH 7.5; 26 °C; single-site model; triplicates, SD; details: both partners purified

Molecule | Kd (FoxA) [nM] | Kd [1] [nM] | dH [1] [kcal/mol] | Kd [2] [nM] | dH [2] [kcal/mol]
CC(=O)N([O-])CCCCCNC(=O)CCC(=O)N([O-])CCCCCNC(=O)CCC(=O)N([O-])CCCCCN.[Fe+3] [FoaB, ferrioxamine B] | 100 ± 10 |  |  |  | 
TonBCt, C-terminal domain of TonB1 from Pseudomonas aeruginosa strain PAO1 (residues 251-340) (domain or fragment, UniProt Q51368 251-340, looked up, TonB1, Pseudomonas aeruginosa PAO1, residues 251-340 (C-terminal domain); also called TonB fragment; C-terminal TonB domain; source: E. coli BL21 Gold, purified (HisTrap Ni-NTA, TEV, reverse purification)) DSDIKPLRMDPPVYPRMAQARGIEGRVKVLFTITSDGRIDDIQVLESVPSRMFDREVRQAMAKWRFEPRVSGGKIVARQATKMFFFKIEK |  | 111 | -10.1 | 6.6 | -18.1
